Results as given in the DeepSol protein solubility set.

Assay: soluble on expression in E. coli; label from the status in PepcDB or PDB records
With “MSAPTTFSVALHNETATAQLMADLALLVGPGDVITLTGDLGAGKTAAARAMIRYLADDEALEVPSPTFTLVQGYELPPFPVMHADLYRVEDESELEEIGLSPLPDATLVLIEWPERAPSALPEDRIDIALTHRPALGSNARAADITGYGKSAAQVARLKALREFLDASGYLDAMRRRMAGDASTRSYARLLRDDEIVILMNFPQRPDGAALYNGKSYSAAVHLAENVKPFVAIDEGLRAQGISAPAIHHADLDHGFLISEDFGSEGVIEGNPPRPIPERYEAATDVLAVLHGKTLPETLPLDGQSYAIPVFDTEAMLIEIGLMPEWYLPDRNAPLSEPKRAEFFAMWRELLKKPLAAPRTWIIRDYHSPNLIWLGMRTGIERVGVIDFQDTVLGPQSYDVVSLLQDARIDVPENLELTLLSRYIKARRAGDASFDPAGFAELYAIMSAQRNTRLLGTFARLNRRDGKPHYLRHQPRIWTYLQRSLAHPALSHLRDWYLANVPPPQRPSQEPAPEPPQGLEHHHHHH” the “soluble on expression in E. coli” value was “soluble”. For “MSAQAKPRSEMTAEELAAKEDEEFNVGPLSILTNSVKNNHQVLINCRNNKKLLGRVKAFDRHCNMVLENVKEMWTEVPKTGKGKKKAKSVAKDRFISKMFLRGDSVILVVKNPLAQAE”, the “soluble on expression in E. coli” value was “not soluble”. In the case of “MSASFDRYVSFQHCDWEGRSERVMQRLQRHVEAAENPFWAYFAQKRAELRDKQGLDDLRILHNYLPTLRELLEDNGDLETLEMLEDLEANLM”, the “soluble on expression in E. coli” value is reported as “not soluble”. For “MSASFSNNACYMDVMIEIISLRLRLAIASSDRVPLWPFPSRQYMPTRPGWSRWRHPTVVVEPMRNQNFSYHKCNNKIDSSKHISTLSH”, the “soluble on expression in E. coli” value was “not soluble”. With “MSASVPADLRNLRACLLCSLVKSVESFQKEGCENCEDVLHLKGDEEKVYDCTSANYDGMIAAMSNNESWVCKWQKMQRKVKGMYAISVSGVLPNNIVSELKSLGVRYKPNQRDYSTQFKK” the “soluble on expression in E. coli” value was “not soluble”. For “MSATGPGIVVIDKPAGMTSHDVVGRCRRIFATRRVGHAGTLDPMATGVLVIGIERATKILGLLTAAPKSYAATIRLGQTTSTEDAEGQVLQSVPAKHLTIEAIDAAMERLRGEIRQVPSSVSAIKVGGRRAYRLARQGRSVQLEARPIRIDRFELLAARRRDQLIDIDVEIDCSSGTYIRALARDLGDALGVGGHVTALRRTRVGRFELDQARSLDDLAERPALSLSLDEACLLMFARRDLTAAEASAAANGRSLPAVGIDGVYAACDADGRVIALLRDEGSRTRSVAVLRPATMHPGGVPRGKLAAALEHHHHHH”, the “soluble on expression in E. coli” value was “soluble”. In the case of “MSATKSEMPADVASVTDSSAASPAFPLIGDFLEEFLKCQVCCTNYNETTKLARGLHCGHTFCTECIKTMQKYGNSAYLECPSCRAETKCDIAAVSTNFAIMELIRKCGFLGPEKPEEPPMKQAAQPQLEQTIDELIDEGYRLLIADVKADLMAKFEQLRDVSKTSTIEATKADLEVLCDSVKEAVYEADLEYSYDEEESDEDEEENEDEEDVEEEEEKPCAEKKSPAQPERSSSLVRGFQIGLSRLFRNRRIHTEHLQVDHGAIATKLETRAACTEKSDNVKK”, the “soluble on expression in E. coli” value is reported as “not soluble”. For “MSATVVDAVNAAPLSGSKEMSLEEPKKMTREDWRKKKELEEQRKLGNAPAEVDEEGKDINPHIPQYISSVPWYIDPSKRPTLKHQRPQPEKQKQFSSSGEWYKRGVKENSVITKYRKGACENCGAMTHKKKDCFERPRRVGAKFTGTNIAPDEHVQPQLMFDYDGKRDRWNGYNPEEHMKIVEEYAKVDLAKRTLKAQKLQEELASGKLVEQANSPKHQWGEEEPNSQTEKDHNSEDEDEDKYADDIDMPGQNFDSKRRITVRNLRIREDIAKYLRNLDPNSAYYDPKTRAMRENPYANAGKNPDEVSYAGDNFVRYTGDTISMAQTQLFAWEAYDKGSEVHLQADPTKLELLYKSFKVKKEDFKEQQKESILEKYGGQEHLDAPPAELLLAQTEDYVEYSRHGTVIKGQERAVACSKYEEDVKIHNHTHIWGSYWKEGRWGYKCCHSFFKYSYCTGEAGKEIVNSEECIINEITGEESVKKPQTLMELHQEKLKEEKKKKKKKKKKHRKSSSDSDDEEKKHEKLKKALNAEEARLLHVKETMQIDERKRPYNSMYETREPTEEEMEAYRMKRQRPDDPMASFLGQ”, the “soluble on expression in E. coli” value was “not soluble”. With “MSAVMATYLLHDETDIRKKAEGIALGLTIGTWTDLPALEQEQLRKHKGEVVAIEELGESERVNAYFGKRLKRAIVKIAYPTVNFSADLPALLVTTFGKLSLDGEVRLLDLEFPDEWKRQFPGPRFGIDGIRDRVGVHNRPLLMSIFKGMIGRDLAYLTSELKKQALGGVDLVKDDEILFDSELLPFEKRITEGKAALQEVYEQTGKRTLYAVNLTGKTFALKDKAKRAAELGADVLLFNVFAYGLDVLQALREDEEIAVPIMAHPAFSGAVTPSEFYGVAPSLWLGKLLRLAGADFVLFPSPYGSVALEREQALGIARALTDDQEPFARAFPVPSAGIHPGLVPLIIRDFGLDTIVNAGGGIHGHPDGAIGGGRAFRAAIDAVLAGRPLRAAAAENEALQKAIDRWGVVEVEA” the “soluble on expression in E. coli” value was “soluble”. For “MSCTGFWRKLASGEECGAAARLLGAVLAIPAALYGLVVRLRALAYARGLSTVRHLDRPVISVGNLTVGGTGKTPMVAYLARRLMARGKRVAVISRGYGGSLEGETRIVSDGRTIVLSAAEAGDEPVHLATSVPGLMTVIGTDRYTAGLLALEQLDPDVFILDDGYQHLRLHRDLNILLMDCNRPLGNGRTLPAGLLREPQTAVRRADLVVYTRCTGGKAPAVHGMIPSCRAGHALTGAALLPDGEVQPLAALRGLRGVACAGIAEPEGFFDALRREGLDIVAAIPFADHASYGEREVSTLREAAAGADYLITTGKDGVKLSAHLARLLPVYATVLEMRPLDPAPLEAALDKVLTHISSCKSLEHHHHHHTHISSCKSLEHHHHHHTHISSCKSLEHHHHHHTHISSCKSLEHHHHHHTHISSCKSLEHHHHHHTHISSCKSLEHHHHHHTHISSCKSLEHHHHHH”, the “soluble on expression in E. coli” value was “not soluble”. In the case of “MSDESNPPKVILLVEDSKADSRLVQEVLKTSTIDHELIILRDGLAAMAFLQQQGEYENSPRPNLILLDLNLPKKDGREVLAEIKQNPDLKRIPVVVLTTSHNEDDVIASYELHVNCYLTKSRNLKDLFKMVQGIESFWLETVTLPAAPG”, the “soluble on expression in E. coli” value is reported as “soluble”. For “MSDFMSNTAALQLLHNAVKSYEREVANFFAANEKATSKYTGRFDFRQFAKKMFDPIPTAQLGQLYIEMLEESHIYMHSHQKSRVGANGYPHSFVSVPELLLNMILAYQLPQQRFVPAEKMEEDGGKVEEDGGAGGAGGSRKKRRNSAARKGKNVTINPRVVLGNELAAKLLEEMLKIPLAPESKQWKTAKYVLCPSSCPQQMEVFGEIIAKNTKSGLISFNALNYFMHDPILNRYLDDPITILHALYIGPLQAPTVELFATNRTDVFRQRCREVLRIALHASKDPMTFTYSVPEFIDKNHPDRCSYRDFVETVTQLIRDLNGEHQGSTAIHTGWACAAIKKFGQKRYVDKTWKDENYYDLIWTVLAQRPHLKKFVVDVLEKNFKDLDAARFWRRMQPYQMNPTVIFNQNVIIVDPLQPTDEFLNFPPTVRHIQMVTNEKEIRDLQMLLEYKVSREEKIYVGVDAEWSAYVSPSKATILQMSLHDCIYIIDLESYQISPQSYHHVLSYLFETPEIVKIGFQFGEDLHQLRAAFRNCVALYRPNNVVCVGKLIMDLMDEIGKLENCDDFRKEWLPHLTDNETSSAANSSVEEQANETIDTNESMDEGDGGGSGIVVKKEESVKQQFLNKGLSFICEKLLGRPLDKTEQCSVWDRRPLRCLQLRYAAMDAYCMLLLYEKCATIFAKLGINVNDFVSKQSPIRISLPLLSEEKL”, the “soluble on expression in E. coli” value was “not soluble”. In the case of “MSDGQHRAADAVVVGAGLAGLACALDLCRAGWRVALLEASDGVGGRMRTDRRDGFLLDRGFQVFNTSYPQVKRRMELKSLRLRPFTAGVVAHTSNGPVRLADPTREPRAAGTLLPGRALPARDLAALAALTARDAVLPVAVTRRRRDRPTSAALSRVGLSDAAIAGILRPFLSGVFLEDRLETSARFFHLVWRSMVRGSLCLPAEGIGAVPAQLADGLPDGVLRLGTPVAEITDAGVLLGDGGEVPARVVVVATDPATAAGLLPDLTVPDTRTVTTYYHATDSPPTAEPILMVDSTGAILNTCVLSQVAPTYAPPGTGLVSTSVLGTDPPGRAQAVLRRLAELYGTDTSGWEQVAARTVDGALPAMLPPWPLSRTTRIGPGRYVCGDHRATGSVQGALASGTRAAREVRADREPQRLEHHHHHH”, the “soluble on expression in E. coli” value is reported as “soluble”. For “MSDHLGSSHDEGELSDESHKKSQRASSSDEPNPAKSNKGLESKMRESILSRLSKRKNSESDDDTTEQRFSIQPKNAQKAKEDRYRDKERDKKREKDKRDDRRDVRGPDARQKDRDFKGRQERSGRDQKVHEHRHHHHHRKHETDGHRTNRSNRDRSSERDSEKHKRHIDRHKKSSTTSPDNDKSPHKKSKHTDVPADAKLFDRILDPNYKKKDDDVLVIEDVEMSPIEILEEKEEKEIVEFTIDSPAGPKKYSKFESDPESDHDDTKPKSPGKAEDDDDVIEVLDDALHSDDDADSDEDKYLKTPEDREWEEMTETEQRLHKEAMKKRASMKQKTLIAQLPVFYPGLMGCRNIDEYECVNRVDEGTFGVVYRGKDKRTDEIVALKRLKMEKEKEGFPITALREINMLLKAGNHPNIVNVKEILLGSNMDKIYMAMEFVEHDMKSLLDTMSRRNKRFSIGEQKTLLQQLLSGIEHMHKLWILHRDLKTSNLLMSHKGILKIADFGLAREYGDPLKKFTSIVVTLWYRSPELLLGTRLYSTPVDMWSVGCIMAEFILLKPLFPGRGELEQIKKIFMEMGTPTESIWPGVTELDGWKALTFEKYPYNQLRKRFLAGRLLNDTGFKLLNGLLTLDPKNRFSATQALDHEWFTEEPYPVPPEEFPTFPAKSEQNKAPPPAKQKQQENRISHVDPETAKLLKQFEVRPEQVKPGGFSLKFDPTRF”, the “soluble on expression in E. coli” value was “not soluble”. For “MSDIKHEKKLANMDTPGETTKSFENKLDEEIPDIEESDFINSPPFSDEIFSPEDSKQVEISELSKQAYSLLKGNSITEAINVFKKILELDPTNNYALVGLGDAERKNNKFNEAIKFYKQCLEHHPSNNYALFGLADCYKSMNQFPRAIAIWEEYLKFDDKNITVLTRVADAYRKTKEFEKAEKLYQKVLEKSPKNAYALIGLGHLNYDFKKYREALVYWEKVMESSGELVDIRILTSIGNCYRKMKLFDRGVYYFERALERSPDNFYGLFGLADCYRGLNQQYNSIVYWKKILELDPNNKVILTRIGDAYRSMNDFEKAKESYQKALDIDFDSYAMLGLAILCKLQQKYDQAITTLTHLKDTGDTNYNYRVYLELAQCYIEKKEKQKAIETLIDFQKLGIKNQTVSDLLFELTKNDH”, the “soluble on expression in E. coli” value was “not soluble”. With “MSDLDTPTPSPHPVLLNLEQFLPYRLSVLSNRISGNIAKVYGDRYGMAIPEWRVITILALYPGSSASEVSDRTAMDKVAVSRAVARLLERGFIRRETHGDDRRRSMLALSPAGRQVYETVAPLVNEMEQRLMSVFSAEEQQTLERLIDRLAKDGLPRMASKD” the “soluble on expression in E. coli” value was “soluble”. In the case of “MSDLQKLQRFSTCDISDGLLNVYNIPTGGYFPNLTAISPPQNSSIVGTAYTVLFAPIDDPRPAVNYIDSVPPNSILVLALEPHLQSQFHPFIKITQAMYGGLMSTRAQYLKSNGTVVFGRIRDVDEHRTLNHPVFAYGVGSCAPKAVVKAVGTNVQLKILTSDGVTQTICPGDYIAGDNNGIVRIPVQETDISKLVTYIEKSIEVDLLVSEDIKNGIPAKQAQNDRRSVLKKYIHHHHHH”, the “soluble on expression in E. coli” value is reported as “soluble”. For “MSDPRPARAVVVGIDGSRAATHAALWAVDEAVNRDIPLRLVYVIDPSQLSAAGEGGGQSAARAALHDASRKVEATGQPVKIETEVLCGRPLTKLMQESRSAAMLCVGSVGLDHVRGRRGSVAATLAGSALCPVAVIHPSPAEPATTSQVSAVVAEVDNGVVLRHAFEEARLRGVPLRAVAVHAAETPDDVEQGSRLAHVHLSRRLAHWTRLYPEVRVDRAIAGGSACRHLAANAKPGQLFVADSHSAHELCGAYQPGCAVLTVRSANL”, the “soluble on expression in E. coli” value was “not soluble”.
